1 molecule from patent KR20220012810A (dated 2022) can be followed below.

In one assay the target is T1, HCoV-HKU1 S1 (HCoV-HKU1, UniProt Q5MQD0 13-760).
T1 construct: domain: S1
T1 sequence: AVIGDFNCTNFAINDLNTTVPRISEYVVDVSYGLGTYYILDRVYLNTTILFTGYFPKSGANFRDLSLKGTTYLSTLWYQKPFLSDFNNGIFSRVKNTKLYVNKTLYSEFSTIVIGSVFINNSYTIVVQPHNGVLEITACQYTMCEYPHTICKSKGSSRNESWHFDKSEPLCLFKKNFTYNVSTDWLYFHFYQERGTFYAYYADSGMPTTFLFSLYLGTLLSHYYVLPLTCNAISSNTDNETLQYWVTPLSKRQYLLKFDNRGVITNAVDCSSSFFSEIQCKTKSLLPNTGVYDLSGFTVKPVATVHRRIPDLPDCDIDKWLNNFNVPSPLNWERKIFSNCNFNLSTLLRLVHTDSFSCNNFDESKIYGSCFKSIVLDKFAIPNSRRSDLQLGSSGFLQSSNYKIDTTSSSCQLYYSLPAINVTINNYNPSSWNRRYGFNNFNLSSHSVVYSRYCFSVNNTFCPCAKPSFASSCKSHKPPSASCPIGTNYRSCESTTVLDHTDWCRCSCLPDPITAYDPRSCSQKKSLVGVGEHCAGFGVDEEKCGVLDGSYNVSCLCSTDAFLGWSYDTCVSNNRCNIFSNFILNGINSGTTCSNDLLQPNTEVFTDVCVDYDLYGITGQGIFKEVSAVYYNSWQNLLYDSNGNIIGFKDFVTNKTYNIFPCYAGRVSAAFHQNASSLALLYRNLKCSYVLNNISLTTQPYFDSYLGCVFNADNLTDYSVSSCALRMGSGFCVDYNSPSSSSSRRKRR
As to the kind of experiment: BLI (Octet). On the technique in general: Biolayer interferometry detects binding as a change in optical thickness at a sensor tip.

The next assay has as its target T2, MERS-CoV RBD (MERS-CoV, UniProt K9N5Q8 367-606).
T2 sequence: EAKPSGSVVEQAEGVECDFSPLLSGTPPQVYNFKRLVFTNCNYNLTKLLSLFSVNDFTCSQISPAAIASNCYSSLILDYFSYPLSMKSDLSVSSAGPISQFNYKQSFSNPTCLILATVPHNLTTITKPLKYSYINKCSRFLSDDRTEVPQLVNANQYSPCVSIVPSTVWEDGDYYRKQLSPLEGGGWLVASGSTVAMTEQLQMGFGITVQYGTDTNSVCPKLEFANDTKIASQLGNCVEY
In words: BLI (Octet).

The target of a further assay is SARS-CoV S1 (SARS-CoV, UniProt P59594 14-667). As to the kind of experiment: BLI (Octet).
Assay [1] deals with SARS-CoV-2 spike D614 (pseudovirus) (SARS-CoV-2, UniProt P0DTC2 14-1273). As to the kind of experiment: cell-based or functional assay.
Assay [2] addresses SARS-CoV-2 spike 'D614 or G614' (pseudovirus) (SARS-CoV-2, UniProt P0DTC2 14-1273). As to the kind of experiment: cell-based or functional assay.

B1: No. 139 항체 (Full IgG) (antibody, V domains shown)
VH: QITLKESGPTLVKPTQTLTLTCSFSGFSLSTSGVGVGWIRQPPGKALEWLALIDWDDNKYHTTSLKTRLTISKDTSKNQVVLTMTNMDPVDTATYYCARIPGFLRYRNRYYYYGMDVWGQGTTVTVSS
VL: ELVLTQPPSVSAAPGQKVTISCSGSSSNIGNNYVSWYQQLPGTAPKLLIYDNNKRPSGIPDRFSGSKSGTSATLGITGLQTGDEADYYCGTWDSSLSAGVFGGGTELTVL
As for B1, the binding result in the assay with HCoV-HKU1 S1, in the assay with MERS-CoV RBD and in the assay with SARS-CoV S1 was “no binding” throughout. Also, the “IC50, pseudovirus neutralisation” value in assay [1] was 0.378 ng/mL; in assay [2], 0.35 ng/mL.
